Laboratory results from patent US20250043302A1, “MUTATED HYDROXYPHENYLPYRUVATE DIOXYGENASE POLYPEPTIDE, AND CODING GENE AND USE THEREOF” (BEIJING DABEINONG BIOTECHNOLOGY CO., LTD., priority 2021, published 2025).

What was measured:
[1] = test system: Arabidopsis thaliana T1 plants; assay: Topramezone tolerance of transgenic Arabidopsis thaliana T1 plants (spray, bleached leaf area grade, damage score); type: in vivo; conditions: for Classification and statistics of the grade of pesticide damage: Grade 0 / Classification and statistics of the grade of pesticide damage: Grade 1 / Classification and statistics of the grade of pesticide damage: Grade 2 / Classification and statistics of the grade of pesticide damage: Grade 3: number of plants; for Grade 0 (classification and statistics of the grade of pesticide damage; number of plants) / Grade 1 (classification and statistics of the grade of pesticide damage; number of plants) / Grade 2 (classification and statistics of the grade of pesticide damage; number of plants) / Grade 3 (classification and statistics of the grade of pesticide damage; number of plants): 16 plants
Excerpt: T1 transformants were initially selected from the untransformed seeds using a glufosinate selection scheme. The Arabidopsis thaliana T1 plants (AsHPPD-02) into which the AsHPPD-02 nucleotide sequence was introduced, the Arabidopsis thaliana T1 plants (AsHPPDm-F372A-02) into which the AsHPPDm-F372A-02 nucleotide sequence was introduced, the Arabidopsis thaliana T1 plants (AsHPPDm-F383W-02) into which the AsHPPDm-F383W-02 nucleotide sequence was introduced, the Arabidopsis thaliana T1 plants (AsHPPDm-F372A-F383W-02) into which the AsHPPDm-F372A-F383W-02 nucleotide sequence was introduced, the Arabidopsis thaliana T1 plants (DBN11726N) into which the control recombinant expression vector DBN11726N was introduced, and the wild-type Arabidopsis thaliana plants (CK) (18 days after sowing) were sprayed respectively with topramezone at three concentrations (100 g ai/ha (four-fold field concentration, 4×), 200 g ai/ha (eight-fold field concentration, 8×), and 0 g ai/ha (water, 0×)), isoxaflutole at three concentrations (140 g ai/ha (two-fold field concentration, 2×), 280 g ai/ha (four-fold field concentration, 4×), and 0 g ai/ha (water, 0×)), and mesotrione at three concentrations (210 g ai/ha (two-fold field concentration, […]), 420 g ai/ha (four-fold field concentration, 4×), and 0 g ai/ha (water, 0×)), to determine the tolerance of Arabidopsis thaliana to the herbicides. The degree of damage caused by the herbicide was measured for each plant according to the proportion of bleached leaf area (the proportion of bleached leaf area=bleached leaf area/total leaf area×100%) 7 days after spraying (7 DAT): the case where there is basically no bleached phenotype is defined as grade 0, the case where the proportion of bleached leaf area is less than 50% is defined as grade 1, the case where the proportion of bleached leaf area is more than 50% is defined as grade 2, and the case where the proportion of bleached leaf area is 100% grade is defined as grade 3.
According to the method as described above in point 6 of Example 1, the aforementioned Arabidopsis thaliana T1 plants and wild-type Arabidopsis thaliana plants (CK) (18 days after sowing) were sprayed respectively with topramezone at three concentrations (25 g ai/ha (one-fold field concentration, 1×). 100 g ai/ha (four-fold field concentration, 4×), and 0 g ai/ha (water, 0×)), isoxaflutole at three concentrations (35 g ai/ha (half-fold field concentration, 0.5×). 70 g ai/ha (one-fold field concentration, 1×), and 0 g ai/ha (water, 0×)), and mesotrione at three concentrations (52.5 g ai/ha (half-fold field concentration, 0.5×), 105 g ai/ha (one-fold field concentration, 1×), and 0 g ai/ha (water, 0×)) to detect the tolerance of Arabidopsis thaliana to the herbicides.
According to the method as described above in point 6 of Example 1, the aforementioned Arabidopsis thaliana T1 plants and wild-type Arabidopsis thaliana plants (CK) (18 days after sowing) were sprayed with topramezone at three different concentrations (i.e., 100 g ai/ha (four-fold field concentration, 4×), 200 g ai/ha (eight-fold field concentration, 8×) and 0 g ai/ha (water, 0×)), isoxaflutole at three different concentrations (i.e., 140 g ai/ha (two-fold field concentration, 2×), 280 g ai/ha (four-fold field concentration, 4×) and 0 g ai/ha (water, 0×)), and mesotrione at three different concentrations (i.e., 210 g ai/ha (two-fold field concentration, 2×), 420 g ai/ha (four-fold field concentration, 4×) and 0 g ai/ha (water, 0×)) respectively to detect the herbicide tolerance of Arabidopsis thaliana. […]

[2] = test system: Arabidopsis thaliana T1 plants; assay: Isoxaflutole tolerance of transgenic Arabidopsis thaliana T1 plants (spray, bleached leaf area grade, damage score); type: in vivo;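 for Scores: Weighted damage index from 0 to 100 where higher means more damage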
Outline: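 T1 transformants selected by glufosinate; 18-day-old plants, with empty-vector and wild-type controls, sprayed with topramezone (25–200 g ai/ha), isoxaflutole (35–280 g ai/ha) or mesotrione (52.5–420 g ai/ha), water as 0×. Bleached leaf area fraction scored at 7 DAT as grades 0–3.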

[3] = topramezone 100 g ai/ha (4×), 7 DAT, Table 1
[4] = topramezone 200 g ai/ha (8×), 7 DAT, Table 1
[5] = topramezone 100 g ai/ha (4x field concentration), Arabidopsis thaliana T1 plants
[6] = topramezone 200 g ai/ha (8x field concentration), Arabidopsis thaliana T1 plants
[7] = isoxaflutole 140 g ai/ha (2x field concentration), Arabidopsis thaliana T1 plants
[8] = isoxaflutole 140 g ai/ha (2x field concentration), Arabidopsis thaliana T1 plants, 16 plants

B1: AsHPPDm-F383W-02: nucleotide sequence encoding Avena sativa HPPD with F383W; vector DBN11729 (nucleic acid)
DNA: ATGCCACCTACTCCAGCTACAGCTACTGGTGCTGCTGCTGCTGCCGTTACTCCTGAGCACGCTGCCAGGTCATTCCCCAGGGTGGTTCGCGTGAACCCCAGATCTGATAGGTTCCCAGTTCTGAGCTTCCACCATGTTGAGCTGTGGTGCGCTGATGCTGCTTCTGCTGCTGGCAGGTTCTCTTTCGCTCTTGGTGCTCCACTCGCTGCTAGATCTGATCTGTCTACAGGAAATAGCGCTCATGCCTCACTCCTGCTTCGCTCAGGTGCTTTGGCCTTCCTCTTCACCGCTCCATATGCTCCCCCACCTCAGGAGGCTGCTACTGCTGCTGCTACAGCCTCCATTCCAAGCTTCTCAGCTGATGCCGCTAGAACCTTCGCTGCTGCTCATGGACTTGCCGTGAGGTCTGTTGGTGTTCGCGTGGCTGATGCTGCTGAGGCTTTCAGAGTTTCCGTTGCCGGCGGAGCTAGGCCAGCTTTCGCTCCTGCTGATTTGGGACATGGTTTCGGCCTGGCTGAGGTTGAGCTTTACGGTGACGTGGTTCTCCGCTTCGTGTCTTACCCAGATGAGACTGACCTGCCTTTCCTTCCCGGCTTCGAGAGAGTTTCCTCTCCTGGTGCCGTGGATTACGGCCTGACAAGGTTCGACCACGTGGTTGGAAACGTTCCCGAGATGGCTCCAGTGATCGATTACATGAAGGGCTTCCTTGGATTCCATGAGTTCGCCGAGTTCACTGCTGAGGACGTGGGAACCACTGAGTCCGGTTTGAACTCTGTGGTTCTCGCCAACAATTCTGAGGCTGTTTTGCTCCCTCTGAATGAGCCTGTGCATGGAACCAAGAGGAGAAGCCAGATTCAAACTTACCTGGAGTACCACGGTGGCCCTGGAGTTCAGCATATCGCCCTTGCTTCTAATGATGTGTTGCGCACACTCAGAGAGATGCGCGCCAGAACCCCCATGGGAGGTTTCGAGTTCATGGCCCCACCACAGGCTAAGTACTACGAGGGCGTTAGAAGGATTGCTGGAGACGTGTTGAGCGAGGAGCAGATCAAGGAGTGCCAAGAGCTGGGTGTTCTTGTGGATAGGGATGACCAGGGCGTTCTGCTTCAAATTTTCACTAAGCCAGTGGGCGACCGCCCTACATTCTGGCTTGAGATGATTCAAAGAATCGGCTGCATGGAGAAGGATGAGGTTGGACAGGAGTACCAAAAGGGCGGATGCGGTGGCTTCGGAAAGGGTAACTTCAGCGAGTTGTTCAAGTCAATCGAGGACTACGAGAAGAGCCTCGAGGTGAAGCAGTCAGTGGTTGCCCAAAAGTCCTGA
modifications: AsHPPDm-F383W-02 Nucleotide Sequence
notes: vector DBN11729
B1 was tested, and the “Classification and statistics of the grade of pesticide damage: Grade 0” value [1, 3] was 16, the “Classification and statistics of the grade of pesticide damage: Grade 1” value [1, 3] was 0 and the “Classification and statistics of the grade of pesticide damage: Grade 2” value [1, 3] was 0. The “Classification and statistics of the grade of pesticide damage: Grade 3” value [1, 3] was 0, the “Classification and statistics of the grade of pesticide damage: Grade 0” value [1, 4] was 16 and the “Classification and statistics of the grade of pesticide damage: Grade 1” value [1, 4] was 0. The “Classification and statistics of the grade of pesticide damage: Grade 2” value [1, 4] was 0, the “Classification and statistics of the grade of pesticide damage: Grade 3” value [1, 4] was 0 and the Scores ([1]; pesticide damage score 0-100, topramezone 100 g ai/ha (4×), 7 DAT, Table 1) was 0. The Scores ([1]; pesticide damage score 0-100, topramezone 200 g ai/ha (8×), 7 DAT, Table 1) was 0, the Resistance evaluation [1, 5] was “Highly resistant” and the Scores [1, 5] was 0. The “Grade 0 (classification and statistics of the grade of pesticide damage; number of plants)” value [1, 5] was 16, the “Grade 1 (classification and statistics of the grade of pesticide damage; number of plants)” value [1, 5] was 0 and the “Grade 2 (classification and statistics of the grade of pesticide damage; number of plants)” value [1, 5] was 0. For the same molecule, the “Grade 3 (classification and statistics of the grade of pesticide damage; number of plants)” value [1, 5] was 0, the Resistance evaluation [1, 3] was “highly resistant (highly resistant plants (scores 0-15))” and the Resistance evaluation [1, 6] was “Highly resistant”. For the same molecule, the Scores [1, 6] was 0, the “Grade 0 (classification and statistics of the grade of pesticide damage; number of plants)” value [1, 6] was 16 and the “Grade 1 (classification and statistics of the grade of pesticide damage; number of plants)” value [1, 6] was 0. For the same molecule, the “Grade 2 (classification and statistics of the grade of pesticide damage; number of plants)” value [1, 6] was 0, the “Grade 3 (classification and statistics of the grade of pesticide damage; number of plants)” value [1, 6] was 0 and the Resistance evaluation [1, 4] was “highly resistant (highly resistant plants (scores 0-15))”. The “tolerance to topramezone (resistance class)” value ([1]; topramezone at four-fold or eight-fold field concentration) was “highly-resistant”, the “tolerance to isoxaflutole (in words)” value ([2]; in vivo) was “different degrees of tolerance” and the Resistance evaluation [2, 7] was “Moderately”. For the same molecule, the Scores [2, 7] was 21, the “Grade 0 (classification and statistics of the grade of pesticide damage; number of plants)” value [2, 8] was 6 and the “Grade 1 (classification and statistics of the grade of pesticide damage; number of plants)” value [2, 8] was 10. For the same molecule, the “Grade 2 (classification and statistics of the grade of pesticide damage; number of plants)” value [2, 8] was 0, the “Grade 3 (classification and statistics of the grade of pesticide damage; number of plants)” value [2, 8] was 0 and the Resistance evaluation ([2]; isoxaflutole 140 g ai/ha (2×), 7 DAT, Table 2) was “moderately”.
